Data from patent US20140087995A1 (published 2014).
Numbered stars: 1 amine (or outer) side, 2 acyl side, 3 side chain; on linkers, the order of the positions; unused ones are H or OH. Bridge positions count the residues as written; N and C are the ends. Side chains are listed from the residue outwards. Ends that are not written are not given here. * marks the point of attachment. C20 diacid = O=C(O)CCCCCCCCCCCCCCCCCCC(=O)*; γGlu = O=C(O)[C@H](CCC(=O)[*:2])N[*:1]

T1: human calcitonin receptor (human, UniProt P30988 25-474)
T1 construct: whole, on cells; Used as cell membranes prepared from the transfected BHK cells (Assay VII), not as intact cells; also called hCTR; hCT
T1 sequence (looked up): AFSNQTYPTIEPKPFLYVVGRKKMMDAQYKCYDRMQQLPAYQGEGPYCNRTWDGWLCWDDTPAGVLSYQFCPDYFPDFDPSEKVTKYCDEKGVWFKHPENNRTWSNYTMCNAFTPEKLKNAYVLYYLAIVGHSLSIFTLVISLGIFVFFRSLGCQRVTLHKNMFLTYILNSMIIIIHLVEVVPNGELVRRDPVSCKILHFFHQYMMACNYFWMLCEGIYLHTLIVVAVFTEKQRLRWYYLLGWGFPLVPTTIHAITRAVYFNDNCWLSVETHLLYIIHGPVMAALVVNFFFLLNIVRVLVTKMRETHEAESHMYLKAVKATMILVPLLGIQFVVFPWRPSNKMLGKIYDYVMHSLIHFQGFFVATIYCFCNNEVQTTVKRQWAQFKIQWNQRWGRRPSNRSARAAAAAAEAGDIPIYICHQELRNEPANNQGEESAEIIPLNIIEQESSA

B1: N^α1-[(4S)-4-carboxy-4-(19-carboxynonadecanoylamino)butanoyl]-[Glu14,Arg17,Pro21,Pro25,Pro28,Pro29]-h-amylin (peptide)
peptide: {C20 diacid-γGlu}-KCNTATCATQRLAEFLRHSSPNFGPILPPTNVGSNTY-NH2
modifications: disulfide 2-7
SMILES: CC[C@H](C)[C@H](NC(=O)[C@@H]1CCCN1C(=O)CNC(=O)[C@H](Cc1ccccc1)NC(=O)[C@H](CC(N)=O)NC(=O)[C@@H]1CCCN1C(=O)[C@H](CO)NC(=O)[C@H](CO)NC(=O)[C@H](Cc1c[nH]cn1)NC(=O)[C@H](CCCNC(=N)N)NC(=O)[C@H](CC(C)C)NC(=O)[C@H](Cc1ccccc1)NC(=O)[C@H](CCC(=O)O)NC(=O)[C@H](C)NC(=O)[C@H](CC(C)C)NC(=O)[C@H](CCCNC(=N)N)NC(=O)[C@H](CCC(N)=O)NC(=O)[C@@H](NC(=O)[C@H](C)NC(=O)[C@@H]1CSSC[C@H](NC(=O)[C@H](CCCCN)NC(=O)CC[C@H](NC(=O)CCCCCCCCCCCCCCCCCCC(=O)O)C(=O)O)C(=O)N[C@@H](CC(N)=O)C(=O)N[C@@H]([C@@H](C)O)C(=O)N[C@@H](C)C(=O)N[C@@H]([C@@H](C)O)C(=O)N1)[C@@H](C)O)C(=O)N[C@@H](CC(C)C)C(=O)N1CCC[C@H]1C(=O)N1CCC[C@H]1C(=O)N[C@H](C(=O)N[C@@H](CC(N)=O)C(=O)N[C@H](C(=O)NCC(=O)N[C@@H](CO)C(=O)N[C@@H](CC(N)=O)C(=O)N[C@H](C(=O)N[C@@H](Cc1ccc(O)cc1)C(N)=O)[C@@H](C)O)C(C)C)[C@@H](C)O
notes: also called compound 6
B2: N^α1-[2-[2-[2-[[2-[2-[2-[[(4S)-4-carboxy-4-(19-carboxynonadecanoylamino)butanoyl]amino]ethoxy]ethoxy]acetyl]amino]ethoxy]ethoxy]acetyl]-[Arg17,Pro21,Pro27]-h-am … (peptide)
peptide: KCNTATCATQRLANFLRHSSPNFGAIPSSTNVGSNTY
modifications: C20 diacid-gGlu-2xOEG on the alpha amino group of the N-terminal Lys1; disulfide Cys2-Cys7; C-terminal amide
notes: also called compound 24
B3: N^ε1-[(4S)-4-carboxy-4-[[(4S)-4-carboxy-4-(19-carboxynonadecanoylamino)butanoyl]amino]butanoyl]-[Asp14,Arg17,Pro21,Pro26,Asp35]-h-amylin (peptide)
peptide: K([γGlu-γGlu-C20 diacid])CNTATCATQRLADFLRHSSPNFGAPLSSTNVGSDTY-NH2
modifications: disulfide 2-7; N-terminus assumed
SMILES: CC(C)C[C@H](NC(=O)[C@H](CCCNC(=N)N)NC(=O)[C@H](CCC(N)=O)NC(=O)[C@@H](NC(=O)[C@H](C)NC(=O)[C@@H]1CSSC[C@H](NC(=O)[C@@H](N)CCCCNC(=O)CC[C@H](NC(=O)CC[C@H](NC(=O)CCCCCCCCCCCCCCCCCCC(=O)O)C(=O)O)C(=O)O)C(=O)N[C@@H](CC(N)=O)C(=O)N[C@@H]([C@@H](C)O)C(=O)N[C@@H](C)C(=O)N[C@@H]([C@@H](C)O)C(=O)N1)[C@@H](C)O)C(=O)N[C@@H](C)C(=O)N[C@@H](CC(=O)O)C(=O)N[C@@H](Cc1ccccc1)C(=O)N[C@@H](CC(C)C)C(=O)N[C@@H](CCCNC(=N)N)C(=O)N[C@@H](Cc1c[nH]cn1)C(=O)N[C@@H](CO)C(=O)N[C@@H](CO)C(=O)N1CCC[C@H]1C(=O)N[C@@H](CC(N)=O)C(=O)N[C@@H](Cc1ccccc1)C(=O)NCC(=O)N[C@@H](C)C(=O)N1CCC[C@H]1C(=O)N[C@@H](CC(C)C)C(=O)N[C@@H](CO)C(=O)N[C@@H](CO)C(=O)N[C@H](C(=O)N[C@@H](CC(N)=O)C(=O)N[C@H](C(=O)NCC(=O)N[C@@H](CO)C(=O)N[C@@H](CC(=O)O)C(=O)N[C@H](C(=O)N[C@@H](Cc1ccc(O)cc1)C(N)=O)[C@@H](C)O)C(C)C)[C@@H](C)O
notes: also called compound 1
B4: N^ε1-[(4S)-4-carboxy-4-[[(4S)-4-carboxy-4-(19-carboxynonadecanoylamino)butanoyl]amino]butanoyl]-[Asp14,Arg17,Pro22,Pro26,Asp35]-h-amylin (peptide)
peptide: K([γGlu-γGlu-C20 diacid])CNTATCATQRLADFLRHSSNPFGAPLSSTNVGSDTY-NH2
modifications: disulfide 2-7; N-terminus assumed
SMILES: CC(C)C[C@H](NC(=O)[C@H](CCCNC(=N)N)NC(=O)[C@H](CCC(N)=O)NC(=O)[C@@H](NC(=O)[C@H](C)NC(=O)[C@@H]1CSSC[C@H](NC(=O)[C@@H](N)CCCCNC(=O)CC[C@H](NC(=O)CC[C@H](NC(=O)CCCCCCCCCCCCCCCCCCC(=O)O)C(=O)O)C(=O)O)C(=O)N[C@@H](CC(N)=O)C(=O)N[C@@H]([C@@H](C)O)C(=O)N[C@@H](C)C(=O)N[C@@H]([C@@H](C)O)C(=O)N1)[C@@H](C)O)C(=O)N[C@@H](C)C(=O)N[C@@H](CC(=O)O)C(=O)N[C@@H](Cc1ccccc1)C(=O)N[C@@H](CC(C)C)C(=O)N[C@@H](CCCNC(=N)N)C(=O)N[C@@H](Cc1c[nH]cn1)C(=O)N[C@@H](CO)C(=O)N[C@@H](CO)C(=O)N[C@@H](CC(N)=O)C(=O)N1CCC[C@H]1C(=O)N[C@@H](Cc1ccccc1)C(=O)NCC(=O)N[C@@H](C)C(=O)N1CCC[C@H]1C(=O)N[C@@H](CC(C)C)C(=O)N[C@@H](CO)C(=O)N[C@@H](CO)C(=O)N[C@H](C(=O)N[C@@H](CC(N)=O)C(=O)N[C@H](C(=O)NCC(=O)N[C@@H](CO)C(=O)N[C@@H](CC(=O)O)C(=O)N[C@H](C(=O)N[C@@H](Cc1ccc(O)cc1)C(N)=O)[C@@H](C)O)C(C)C)[C@@H](C)O
notes: also called compound 3
B5: N^ε1-[(4S)-4-carboxy-4-[[(4S)-4-carboxy-4-(19-carboxynonadecanoylamino)butanoyl]amino]butanoyl]-[Asp14,Arg17,Pro21,Pro27,Asp35]-h-amylin (peptide)
peptide: K([γGlu-γGlu-C20 diacid])CNTATCATQRLADFLRHSSPNFGAIPSSTNVGSDTY-NH2
modifications: disulfide 2-7; N-terminus assumed
SMILES: CC[C@H](C)[C@H](NC(=O)[C@H](C)NC(=O)CNC(=O)[C@H](Cc1ccccc1)NC(=O)[C@H](CC(N)=O)NC(=O)[C@@H]1CCCN1C(=O)[C@H](CO)NC(=O)[C@H](CO)NC(=O)[C@H](Cc1c[nH]cn1)NC(=O)[C@H](CCCNC(=N)N)NC(=O)[C@H](CC(C)C)NC(=O)[C@H](Cc1ccccc1)NC(=O)[C@H](CC(=O)O)NC(=O)[C@H](C)NC(=O)[C@H](CC(C)C)NC(=O)[C@H](CCCNC(=N)N)NC(=O)[C@H](CCC(N)=O)NC(=O)[C@@H](NC(=O)[C@H](C)NC(=O)[C@@H]1CSSC[C@H](NC(=O)[C@@H](N)CCCCNC(=O)CC[C@H](NC(=O)CC[C@H](NC(=O)CCCCCCCCCCCCCCCCCCC(=O)O)C(=O)O)C(=O)O)C(=O)N[C@@H](CC(N)=O)C(=O)N[C@@H]([C@@H](C)O)C(=O)N[C@@H](C)C(=O)N[C@@H]([C@@H](C)O)C(=O)N1)[C@@H](C)O)C(=O)N1CCC[C@H]1C(=O)N[C@@H](CO)C(=O)N[C@@H](CO)C(=O)N[C@H](C(=O)N[C@@H](CC(N)=O)C(=O)N[C@H](C(=O)NCC(=O)N[C@@H](CO)C(=O)N[C@@H](CC(=O)O)C(=O)N[C@H](C(=O)N[C@@H](Cc1ccc(O)cc1)C(N)=O)[C@@H](C)O)C(C)C)[C@@H](C)O
notes: also called compound 2
B6: N{Alpha-1}-[(4S)-4-carboxy-4-(19-carboxynonadecanoylamino)butanoyl]-[Glu14,Arg17,Pro21,Pro27,Lys34]-h-amylin (peptide)
peptide: {C20 diacid-γGlu}-KCNTATCATQRLAEFLRHSSPNFGAIPSSTNVGKNTY-NH2
modifications: disulfide 2-7
SMILES: CC[C@H](C)[C@H](NC(=O)[C@H](C)NC(=O)CNC(=O)[C@H](Cc1ccccc1)NC(=O)[C@H](CC(N)=O)NC(=O)[C@@H]1CCCN1C(=O)[C@H](CO)NC(=O)[C@H](CO)NC(=O)[C@H](Cc1c[nH]cn1)NC(=O)[C@H](CCCNC(=N)N)NC(=O)[C@H](CC(C)C)NC(=O)[C@H](Cc1ccccc1)NC(=O)[C@H](CCC(=O)O)NC(=O)[C@H](C)NC(=O)[C@H](CC(C)C)NC(=O)[C@H](CCCNC(=N)N)NC(=O)[C@H](CCC(N)=O)NC(=O)[C@@H](NC(=O)[C@H](C)NC(=O)[C@@H]1CSSC[C@H](NC(=O)[C@H](CCCCN)NC(=O)CC[C@H](NC(=O)CCCCCCCCCCCCCCCCCCC(=O)O)C(=O)O)C(=O)N[C@@H](CC(N)=O)C(=O)N[C@@H]([C@@H](C)O)C(=O)N[C@@H](C)C(=O)N[C@@H]([C@@H](C)O)C(=O)N1)[C@@H](C)O)C(=O)N1CCC[C@H]1C(=O)N[C@@H](CO)C(=O)N[C@@H](CO)C(=O)N[C@H](C(=O)N[C@@H](CC(N)=O)C(=O)N[C@H](C(=O)NCC(=O)N[C@@H](CCCCN)C(=O)N[C@@H](CC(N)=O)C(=O)N[C@H](C(=O)N[C@@H](Cc1ccc(O)cc1)C(N)=O)[C@@H](C)O)C(C)C)[C@@H](C)O
notes: also called compound 36
B7: N^ε1-[(4S)-4-carboxy-4-[[(4S)-4-carboxy-4-(19-carboxynonadecanoylamino)butanoyl]amino]butanoyl]-[Asp14,Arg17,Pro21,Pro27,Arg35]-h-amylin (peptide)
peptide: K([γGlu-γGlu-C20 diacid])CNTATCATQRLADFLRHSSPNFGAIPSSTNVGSRTY-NH2
modifications: disulfide 2-7; N-terminus assumed
SMILES: CC[C@H](C)[C@H](NC(=O)[C@H](C)NC(=O)CNC(=O)[C@H](Cc1ccccc1)NC(=O)[C@H](CC(N)=O)NC(=O)[C@@H]1CCCN1C(=O)[C@H](CO)NC(=O)[C@H](CO)NC(=O)[C@H](Cc1c[nH]cn1)NC(=O)[C@H](CCCNC(=N)N)NC(=O)[C@H](CC(C)C)NC(=O)[C@H](Cc1ccccc1)NC(=O)[C@H](CC(=O)O)NC(=O)[C@H](C)NC(=O)[C@H](CC(C)C)NC(=O)[C@H](CCCNC(=N)N)NC(=O)[C@H](CCC(N)=O)NC(=O)[C@@H](NC(=O)[C@H](C)NC(=O)[C@@H]1CSSC[C@H](NC(=O)[C@@H](N)CCCCNC(=O)CC[C@H](NC(=O)CC[C@H](NC(=O)CCCCCCCCCCCCCCCCCCC(=O)O)C(=O)O)C(=O)O)C(=O)N[C@@H](CC(N)=O)C(=O)N[C@@H]([C@@H](C)O)C(=O)N[C@@H](C)C(=O)N[C@@H]([C@@H](C)O)C(=O)N1)[C@@H](C)O)C(=O)N1CCC[C@H]1C(=O)N[C@@H](CO)C(=O)N[C@@H](CO)C(=O)N[C@H](C(=O)N[C@@H](CC(N)=O)C(=O)N[C@H](C(=O)NCC(=O)N[C@@H](CO)C(=O)N[C@@H](CCCNC(=N)N)C(=O)N[C@H](C(=O)N[C@@H](Cc1ccc(O)cc1)C(N)=O)[C@@H](C)O)C(C)C)[C@@H](C)O
notes: also called compound 52

These binders were tested against T1, human calcitonin receptor (assay: SPA competition against 125I-calcitonin, membranes with human calcitonin receptor (Assay VII)).
How it was run: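 BHK hCTR membranes 35 ng/μL + SPA beads 0.05 mg/well; buffer 50 mM Hepes pH 7.4, 1 mM CaCl2, 5 mM MgCl₂, 0.1% OA, 0.02% Tween20. 120 min, 25° C., shaking. Scintillation count; IC50 by one-site binding competition.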
B1 gave an IC50 of 19.9 nM. B2 gave an IC50 of 102 nM. With B3 the IC50 was 32.5 nM. Binder B4 has an IC50 of 19.5 nM. B5 gave an IC50 of 19.5 nM. For B6, the IC50 was 6.3 nM. Work on B7 yielded an IC50 of 56.9 nM.
